Experimental data reported in the supplement of paper PMC10065799, “High-throughput profiling of sequence recognition by tyrosine kinases and SH2 domains using bacterial peptide display” (eLife, 2023).

Experiments:
Grb2 SH2 = Grb2 SH2 (UniProt P62993); assay: SH2 binding enrichment of the phosphorylated peptide, bacterial display (enrichment ratio); higher = better substrate or ligand; peptides without Tyr show the background
c-Src SH2 = assay: as above
SHP2-C SH2 = assay: as above
MERTK = MERTK (UniProt Q12866); assay: phosphorylation enrichment, bacterial display (enrichment ratio); higher = better substrate or ligand; peptides without Tyr show the background
Fer (mouse) = assay: as above
Fes = Fes (UniProt P07332); assay: as above
EPHB2 = EPHB2 (UniProt P29323); assay: as above
EPHB1 = EPHB1 (UniProt P54762); assay: as above
Hck = Hck (UniProt P08631); assay: as above
Jak2 = Jak2 (UniProt O60674); assay: as above
c-Src = assay: as above
FGFR3 = FGFR3 (UniProt P22607); assay: as above
AncSZ = assay: as above
c-Abl (mouse) = assay: as above
FGFR1 = FGFR1 (UniProt P11362); assay: as above
Fyn = Fyn (UniProt P06241); assay: as above
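Throughout, for SH2 binding enrichment of the phosphorylated peptide, bacterial display: peptide library displayed on the E. coli surface as eCPX fusions, selected cells deep-sequenced, score is each peptide's frequency after selection divided by its frequency in the input.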
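Throughout, for phosphorylation enrichment, bacterial display: 11-residue human phosphosite peptides and single-mutation variants displayed on the E. coli surface, counted by deep sequencing, each peptide's frequency after selection divided by its frequency in the unselected input library; frequency after pTyr selection over input frequency; kinase dosed for 20-30% of maximal phosphorylation in three min.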

Sequence of Jak2 (O60674 whole entry, looked up): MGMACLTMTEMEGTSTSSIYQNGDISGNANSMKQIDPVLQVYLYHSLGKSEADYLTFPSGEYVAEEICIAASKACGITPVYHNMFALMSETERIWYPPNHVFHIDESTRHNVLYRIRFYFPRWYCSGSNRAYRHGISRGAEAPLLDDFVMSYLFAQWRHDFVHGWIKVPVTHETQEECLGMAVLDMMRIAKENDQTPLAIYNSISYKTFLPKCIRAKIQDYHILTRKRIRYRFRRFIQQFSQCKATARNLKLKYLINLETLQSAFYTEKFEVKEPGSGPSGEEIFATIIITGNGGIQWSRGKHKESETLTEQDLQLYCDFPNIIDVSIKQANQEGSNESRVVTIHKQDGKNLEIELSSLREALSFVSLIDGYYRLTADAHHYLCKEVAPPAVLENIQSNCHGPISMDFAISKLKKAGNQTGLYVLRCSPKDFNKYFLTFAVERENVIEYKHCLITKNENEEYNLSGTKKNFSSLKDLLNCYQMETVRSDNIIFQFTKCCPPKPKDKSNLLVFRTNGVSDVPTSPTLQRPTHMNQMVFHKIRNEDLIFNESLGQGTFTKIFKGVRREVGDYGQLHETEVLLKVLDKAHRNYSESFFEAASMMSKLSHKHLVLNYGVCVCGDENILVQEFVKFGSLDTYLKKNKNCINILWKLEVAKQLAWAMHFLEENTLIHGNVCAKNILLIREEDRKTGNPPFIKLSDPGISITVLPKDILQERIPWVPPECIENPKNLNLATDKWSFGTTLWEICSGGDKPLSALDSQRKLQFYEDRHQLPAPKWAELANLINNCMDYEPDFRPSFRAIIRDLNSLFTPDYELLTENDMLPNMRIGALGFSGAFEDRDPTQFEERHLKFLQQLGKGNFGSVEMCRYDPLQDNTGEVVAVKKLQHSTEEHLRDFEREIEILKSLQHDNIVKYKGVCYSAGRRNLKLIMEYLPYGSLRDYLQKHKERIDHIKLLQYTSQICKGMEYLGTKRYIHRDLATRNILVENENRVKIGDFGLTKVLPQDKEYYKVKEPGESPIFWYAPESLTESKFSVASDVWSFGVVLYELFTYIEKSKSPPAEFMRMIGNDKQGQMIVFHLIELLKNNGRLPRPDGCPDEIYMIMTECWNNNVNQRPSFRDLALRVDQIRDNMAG
Sequence of Fes (P07332 whole entry, looked up): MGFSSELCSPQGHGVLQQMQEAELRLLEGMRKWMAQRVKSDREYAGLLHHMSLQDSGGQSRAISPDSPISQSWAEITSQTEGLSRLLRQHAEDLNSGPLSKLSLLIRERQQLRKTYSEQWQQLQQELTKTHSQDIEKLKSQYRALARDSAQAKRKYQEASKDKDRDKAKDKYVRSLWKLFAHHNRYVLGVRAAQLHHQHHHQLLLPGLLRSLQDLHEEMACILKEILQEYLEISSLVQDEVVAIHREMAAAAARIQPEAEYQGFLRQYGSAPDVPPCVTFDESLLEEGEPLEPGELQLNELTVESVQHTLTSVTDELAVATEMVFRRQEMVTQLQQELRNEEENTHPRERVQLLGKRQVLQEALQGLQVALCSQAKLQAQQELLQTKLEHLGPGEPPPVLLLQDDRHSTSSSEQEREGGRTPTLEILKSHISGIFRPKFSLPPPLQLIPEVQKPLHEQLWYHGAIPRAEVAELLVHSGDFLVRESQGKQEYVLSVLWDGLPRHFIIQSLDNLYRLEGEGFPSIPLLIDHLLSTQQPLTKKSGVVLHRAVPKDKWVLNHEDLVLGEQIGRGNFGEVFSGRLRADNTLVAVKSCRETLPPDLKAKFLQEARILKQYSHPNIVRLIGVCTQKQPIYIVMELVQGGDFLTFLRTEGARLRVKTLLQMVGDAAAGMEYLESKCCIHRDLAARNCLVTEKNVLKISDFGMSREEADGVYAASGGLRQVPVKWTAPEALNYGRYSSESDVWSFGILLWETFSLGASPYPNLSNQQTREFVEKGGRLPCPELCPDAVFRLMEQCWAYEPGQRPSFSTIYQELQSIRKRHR
Sequence of EPHB2 (P29323 whole entry, looked up): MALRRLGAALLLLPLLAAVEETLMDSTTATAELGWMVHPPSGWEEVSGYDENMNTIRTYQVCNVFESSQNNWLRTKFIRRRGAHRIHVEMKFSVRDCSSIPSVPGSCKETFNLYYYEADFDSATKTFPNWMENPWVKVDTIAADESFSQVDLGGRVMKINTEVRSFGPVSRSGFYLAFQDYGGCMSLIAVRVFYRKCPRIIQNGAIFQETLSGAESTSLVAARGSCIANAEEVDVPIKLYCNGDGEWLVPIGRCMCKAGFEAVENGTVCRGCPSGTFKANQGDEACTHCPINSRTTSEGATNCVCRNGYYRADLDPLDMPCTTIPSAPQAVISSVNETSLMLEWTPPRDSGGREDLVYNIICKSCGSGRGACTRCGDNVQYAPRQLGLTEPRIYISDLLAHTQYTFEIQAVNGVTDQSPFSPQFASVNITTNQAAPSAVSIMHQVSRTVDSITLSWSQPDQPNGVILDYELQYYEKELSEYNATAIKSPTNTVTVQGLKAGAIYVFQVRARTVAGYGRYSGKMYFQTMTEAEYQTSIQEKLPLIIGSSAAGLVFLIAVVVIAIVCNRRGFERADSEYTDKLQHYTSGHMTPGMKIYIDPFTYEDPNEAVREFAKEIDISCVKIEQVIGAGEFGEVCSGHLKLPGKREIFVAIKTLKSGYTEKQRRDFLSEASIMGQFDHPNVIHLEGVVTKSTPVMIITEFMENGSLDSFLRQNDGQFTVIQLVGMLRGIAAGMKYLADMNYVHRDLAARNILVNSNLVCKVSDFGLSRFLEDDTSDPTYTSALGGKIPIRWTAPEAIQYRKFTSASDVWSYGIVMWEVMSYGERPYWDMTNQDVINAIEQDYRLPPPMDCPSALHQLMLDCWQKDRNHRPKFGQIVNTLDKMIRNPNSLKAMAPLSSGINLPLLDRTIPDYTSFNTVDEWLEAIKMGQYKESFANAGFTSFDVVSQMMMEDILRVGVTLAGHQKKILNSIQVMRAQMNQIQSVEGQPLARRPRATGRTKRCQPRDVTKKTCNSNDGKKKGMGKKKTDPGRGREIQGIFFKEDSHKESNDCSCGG
Sequence of FGFR3 (P22607 whole entry, looked up): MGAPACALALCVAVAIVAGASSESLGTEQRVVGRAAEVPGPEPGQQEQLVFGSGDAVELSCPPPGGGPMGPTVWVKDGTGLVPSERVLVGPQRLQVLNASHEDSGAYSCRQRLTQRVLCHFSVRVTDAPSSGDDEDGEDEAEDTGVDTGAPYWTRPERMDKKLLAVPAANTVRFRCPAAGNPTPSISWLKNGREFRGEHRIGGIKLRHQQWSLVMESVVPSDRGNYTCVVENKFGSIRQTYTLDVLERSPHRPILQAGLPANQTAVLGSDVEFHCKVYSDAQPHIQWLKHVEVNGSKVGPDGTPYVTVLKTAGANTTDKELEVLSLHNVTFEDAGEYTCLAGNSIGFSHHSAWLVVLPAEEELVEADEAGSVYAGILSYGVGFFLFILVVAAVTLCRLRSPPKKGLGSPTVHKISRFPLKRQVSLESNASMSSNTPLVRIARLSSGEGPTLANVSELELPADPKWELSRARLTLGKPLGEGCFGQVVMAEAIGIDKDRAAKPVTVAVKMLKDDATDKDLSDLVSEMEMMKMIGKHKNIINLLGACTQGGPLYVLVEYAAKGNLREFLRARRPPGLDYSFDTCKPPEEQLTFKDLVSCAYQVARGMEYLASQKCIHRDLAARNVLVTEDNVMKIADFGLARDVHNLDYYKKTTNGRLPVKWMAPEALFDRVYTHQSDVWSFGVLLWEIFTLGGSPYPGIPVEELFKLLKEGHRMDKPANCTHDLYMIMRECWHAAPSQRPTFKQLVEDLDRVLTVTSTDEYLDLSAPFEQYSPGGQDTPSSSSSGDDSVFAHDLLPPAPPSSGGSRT
Sequence of Hck (P08631 whole entry, looked up): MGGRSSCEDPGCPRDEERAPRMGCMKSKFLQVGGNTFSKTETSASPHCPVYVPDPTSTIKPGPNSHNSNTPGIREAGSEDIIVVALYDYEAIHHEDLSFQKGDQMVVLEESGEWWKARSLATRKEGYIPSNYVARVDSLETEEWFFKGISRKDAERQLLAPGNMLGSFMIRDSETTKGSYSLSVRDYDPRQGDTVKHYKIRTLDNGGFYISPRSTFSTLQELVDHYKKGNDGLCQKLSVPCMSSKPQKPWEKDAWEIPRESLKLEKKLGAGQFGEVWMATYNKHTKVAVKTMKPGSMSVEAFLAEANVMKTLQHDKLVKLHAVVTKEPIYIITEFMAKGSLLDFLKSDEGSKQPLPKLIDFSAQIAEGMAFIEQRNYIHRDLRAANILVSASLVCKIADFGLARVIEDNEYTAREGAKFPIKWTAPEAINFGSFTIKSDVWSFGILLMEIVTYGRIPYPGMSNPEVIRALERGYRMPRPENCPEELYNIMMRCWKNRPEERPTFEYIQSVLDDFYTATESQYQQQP
Sequence of Fyn (P06241 whole entry, looked up, the tested form may be a part): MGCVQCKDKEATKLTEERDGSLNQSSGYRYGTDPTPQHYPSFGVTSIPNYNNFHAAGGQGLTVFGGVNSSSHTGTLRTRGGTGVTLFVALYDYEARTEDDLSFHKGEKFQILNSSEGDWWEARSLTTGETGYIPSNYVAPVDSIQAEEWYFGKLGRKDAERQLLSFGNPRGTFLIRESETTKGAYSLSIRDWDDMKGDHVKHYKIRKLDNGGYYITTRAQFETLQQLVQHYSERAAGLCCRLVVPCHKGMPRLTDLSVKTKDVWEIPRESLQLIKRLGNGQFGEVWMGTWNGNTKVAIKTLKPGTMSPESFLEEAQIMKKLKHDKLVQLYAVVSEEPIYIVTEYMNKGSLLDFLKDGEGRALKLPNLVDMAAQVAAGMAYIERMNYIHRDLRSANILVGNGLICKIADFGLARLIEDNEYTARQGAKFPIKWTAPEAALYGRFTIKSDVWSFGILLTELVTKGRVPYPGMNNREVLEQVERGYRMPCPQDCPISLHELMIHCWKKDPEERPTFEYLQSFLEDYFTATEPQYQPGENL

| SH2 binding enrichment (Grb2 SH2) | SH2 binding enrichment (c-Src SH2) | SH2 binding enrichment (SHP2-C SH2) | Sequence | phosphorylation enrichment (MERTK) | phosphorylation enrichment (Fer (mouse)) | phosphorylation enrichment (Fes) | phosphorylation enrichment (EPHB2) | phosphorylation enrichment (EPHB1) | phosphorylation enrichment (Hck) | phosphorylation enrichment (Jak2) | phosphorylation enrichment (c-Src) | phosphorylation enrichment (FGFR3) | phosphorylation enrichment (AncSZ) | phosphorylation enrichment (c-Abl (mouse)) | phosphorylation enrichment (FGFR1) | phosphorylation enrichment (Fyn) |
| --- | --- | --- | --- | --- | --- | --- | --- | --- | --- | --- | --- | --- | --- | --- | --- | --- |
| 0.974 | 1.03 | 0.736 | YPLELYERVRI [PRKCG_Y312_M317I] | 0.437 | 4.38 | 1.01 | 1.23 | 1.9 | 1.74 | 0.895 | 0.493 | 0.56 | 1.08 | 0.58 | 0.459 | 0.584 |
| 0.9 | 0.693 | 0.666 | YPPDGYSRHCE [CTNND1_Y213_Y217C] | 0.505 | 0.514 | 0.941 | 0.487 | 0.461 | 0.555 | 0.816 | 0.462 | 0.568 | 0.883 | 0.738 | 0.496 | 0.585 |
| 1.11 | 0.633 | 0.889 | YRAPGYREVVI [TNS2_Y673] | 0.403 | 0.432 | 0.634 | 0.43 | 0.445 | 0.439 | 0.509 | 0.419 | 0.443 | 0.587 | 2.11 | 0.52 | 0.474 |
| 0.686 | 0.494 | 0.585 | YRQLPYCPSVE [CTNND2_Y508_Q507P] | 0.728 | 0.804 | 1.53 | 0.747 | 0.692 | 1.09 | 1.41 | 0.881 | 1.41 | 1.51 | 5.88 | 1.48 | 0.647 |

Second part, the sequence before the results:

| Sequence | SH2 binding enrichment (Grb2 SH2) | SH2 binding enrichment (c-Src SH2) | SH2 binding enrichment (SHP2-C SH2) | phosphorylation enrichment (MERTK) | phosphorylation enrichment (Fer (mouse)) | phosphorylation enrichment (Fes) | phosphorylation enrichment (EPHB2) | phosphorylation enrichment (EPHB1) | phosphorylation enrichment (Hck) | phosphorylation enrichment (Jak2) | phosphorylation enrichment (c-Src) | phosphorylation enrichment (FGFR3) | phosphorylation enrichment (AncSZ) | phosphorylation enrichment (c-Abl (mouse)) | phosphorylation enrichment (FGFR1) | phosphorylation enrichment (Fyn) |
| --- | --- | --- | --- | --- | --- | --- | --- | --- | --- | --- | --- | --- | --- | --- | --- | --- |
| YLEKYYKFGCR [NNMT_Y25_S29C] | 0.938 | 0.681 | 0.94 | 0.649 | 0.55 | 1.55 | 0.588 | 0.775 | 0.564 | 1.34 | 0.739 | 0.928 | 1.18 | 1.02 | 0.569 | 0.549 |
| YQCKHYACIRQ [TIMP3_Y182_S179C] | 1.74 | 2.39 | 4.01 | 0.46 | 0.399 | 0.662 | 0.363 | 0.371 | 0.275 | 0.55 | 0.362 | 0.455 | 0.601 | 0.514 | 0.336 | 0.347 |
| YQSKHYACIRQ [TIMP3_Y182] | 1.21 | 2.08 | 6.64 | 0.534 | 0.554 | 0.762 | 0.451 | 0.462 | 0.55 | 0.626 | 0.406 | 0.45 | 0.673 | 0.648 | 0.52 | 0.418 |
| YRDALYKFMVD [PHEX_Y250] | 0.846 | 0.572 | 0.665 | 1.2 | 0.678 | 1.33 | 0.797 | 1.24 | 0.712 | 1.11 | 0.624 | 1.25 | 1.14 | 0.803 | 0.869 | 0.61 |
| YRTGHYLCNAC [GATA1_Y223_D218Y] | 1.01 | 0.968 | 1.12 | 0.355 | 0.271 | 0.506 | 0.415 | 0.341 | 0.376 | 0.424 | 0.31 | 0.41 | 0.477 | 0.524 | 0.412 | 0.383 |
| YSDPSYVKQME [CDC5L_Y464] | 0.8 | 1.05 | 0.608 | 0.578 | 0.409 | 0.817 | 0.57 | 0.392 | 0.593 | 0.557 | 0.473 | 0.716 | 1.1 | 0.537 | 0.985 | 0.434 |
| YVFSFYHAFSG [ACTN4_Y265_S262F] | 1.19 | 0.889 | 1.23 | 3.14 | 0.69 | 1.43 | 0.825 | 1.15 | 0.835 | 1.44 | 0.964 | 1.13 | 1.37 | 1.1 | 0.921 | 0.692 |
